# Laboratory results taken from patent US20200299730A1.
# Key:
# Experiment in all cases: cell-based or functional assay
# [1] = molecular target: MART-1 peptide pulsed on HLA-A02 expressing K562 target cells (human)
# [2] = molecular target: MART-1 peptide pulsed on K562 target cells expressing the non-cognate MHC HLA-A01 (human)
# [3] = molecular target: MART1 peptide-HLA (pHLA) single polypeptide chain (antigenic peptide, β2-microglobulin, HLA-A2 domains) constitutively expressed on K562 target cells (human)
Substance,Cytotoxic Killing [1] [%],Cytotoxic Killing [2] [%],Cytotoxic Killing [3] [%],"single-cell secretome (Isoplexis), CD8+ T cells producing more than one cytokine [1] [%]"
"MART-1 (F5) TCR expressed by lentiviral transduction (pCCLc-MND-F5TCR-Myc271), on human CD3+ T cells (TCR; unit assumed)",38.1,8.5,39.4,–
"MART-1 neoTCR (F5) encoded by HR template NTC9385R-TRAC(1k)DTS_P2A.F5.TRBopt.f-P2A.TRA(Va)opt (SEQ ID NO: 10), on edited primary human T cells",–,–,–,< 40
"MART-1 neoTCR (F5) encoded by HR template NTC9385R-TRAC(1k)DTS_P2A.F5.TRBopt.f-P2A.TRAopt.BGHpA (SEQ ID NO: 9), on edited primary human T cells (TCR; unit assumed)",25.6,10.6,34.5,–
"NY-ESO (1G4) TCR expressed by lentiviral transduction (pCCLc-MND-1G4TCR-Myc271), on human CD3+ T cells (TCR; unit assumed)",8.7,8.3,8.4,–
